Experimental data taken from publication PMC3574147, “Association of RNAs with Bacillus subtilis Hfq”.

Target: T1, Hfq (Bacillus subtilis, UniProt O31796 1-73)
T1 sequence: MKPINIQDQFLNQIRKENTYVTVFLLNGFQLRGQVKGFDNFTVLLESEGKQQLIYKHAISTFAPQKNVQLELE
Test: EMSA; 10 mM Mg2+, 2.5 ng/ul yeast tRNA; 50 mM Hepes pH 7.5, 150 mM NaCl, 10 mM MgCl2, 2.5 ng/ul yeast tRNA, ~2 fmol RNA in 10 ul, 30 min at 25 C; 5% native TBE PAGE
Conditions: protein: recombinant; tags: His6 (pHisII vector); chain copies: 6; label: 32P (gamma-32P ATP)

B1: SR4 antitoxin RNA (structured_RNA)
RNA: GGGUAAUGAUACAAUUAUAUAAUUAUUUUUUGCAUUUUGUUUAAUUAAAUGCAAAGCUGCCCAUCAAAGGGCUUGCUCGUUGUCAAAUCUUAAAAUAAAAAGACCAGGGUGUUGGUAGCACCCUGGCUCUGUACAAGCGUAGGCCUAACCCUUCAGGUGUCCAAACUCAAGGGAAGGUCUAUUUUUU
  binding result: binds
